{"source": "patent US20260201043A1", "about": "(INSTITUT NATIONAL DE LA RECHERCHE SCIENTIFIQUE, published 2026)", "binders": {"B1": {"name": "G13N10 (VHH)", "VHH": "EVQLQASGGGFVQPGGSLRLSCAASGRTSNQTIGWFRQAPGKEREFVSAISARFDEYGYYADSVKGRFTISRDNSKNTVYLQMNSLRAEDTATYYCALGWPQKSTWRAYTAEYWGQGTQVTVSS", "notes": "Synthetic humanized sdAb; on M13 phage in the screening ELISA, purified with His and cMyc tags otherwise; also called Nb #10; GAL-13 sdAb G13N10; not shown: 6xHis and cMyc tags from vector pHEN2"}, "B2": {"name": "G13N2 (VHH)", "VHH": "EVQLQASGGGFVQPGGSLRLSCAASGSTSRSSGMGWFRQAPGKEREFVSAISYRGSGARYYADSVKGRFTISRDNSKNTVYLQMNSLRAEDTATYYCAMWQRQIQPGTRPVWKYWGQGTQVTVSS", "notes": "Synthetic humanized sdAb; on M13 phage in the screening ELISA, purified with His and cMyc tags otherwise; also called GAL-13 sdAb G13N2; not shown: 6xHis and cMyc tags from vector pHEN2"}, "B3": {"name": "G13N8 (VHH)", "VHH": "EVQLQASGGGFVQPGGSLRLSCAASGTTWQETKMGWFRQAPGKEREFVSAISRGPNYYPYYADSVKGRFTISRDNSKNTVYLQMNSLRAEDTATYYCADEWMGSINARGHSGYYWGQGTQVTVSS", "notes": "Synthetic humanized sdAb; on M13 phage in the screening ELISA, purified with His and cMyc tags otherwise; also called GAL-13 sdAb G13N8; not shown: 6xHis and cMyc tags from vector pHEN2"}, "B4": {"name": "G9N1 (VHH)", "VHH": "EVQLQASGGGFVQPGGSLRLSCAASGDTSGEYSMGWFRQAPGKEREFVSAISDQGGIEIYYADSVKGRFTISRDNSKNTVYLQMNSLRAEDTATYYCAHTFYDMPDGYRQYWGQGTQVTVSS", "notes": "Synthetic humanized sdAb; on M13 phage in the screening ELISA, purified with His and cMyc tags and immobilized in wells otherwise; also called GAL-9-specific sdAb G9N1; not shown: 6xHis and cMyc tags from vector pHEN2"}, "B5": {"name": "G9N3 (VHH)", "VHH": "EVQLQASGGGFVQPGGSLRLSCAASGDGSGWDIMGWFRQAPGKEREFVSAISRHDTTYSYYADSVKGRFTISRDNSKNTVYLQMNSLRAEDTATYYCATIPASWNKSYWGQGTQVTVSS", "notes": "Synthetic humanized sdAb; on M13 phage in the screening ELISA, purified with His and cMyc tags and immobilized in wells otherwise; also called GAL-9-specific sdAb G9N3; not shown: 6xHis and cMyc tags from vector pHEN2"}, "B6": {"name": "G9N4 (VHH)", "VHH": "EVQLQASGGGFVQPGGSLRLSCAASGGTWRWTIMGWFRQAPGKEREFVSAISRTNSEYQYYADSVKGRFTISRDNSKNTVYLQMNSLRAEDTATYYCAEPTAVWADKGQEMQSYWGQGTQVTVSS", "notes": "Synthetic humanized sdAb; on M13 phage in the screening ELISA, purified with His and cMyc tags and immobilized in wells otherwise; also called GAL-9-specific sdAb G9N4; not shown: 6xHis and cMyc tags from vector pHEN2"}, "B7": {"name": "G13N1 (VHH, not shown: small tags and cut ends)", "VHH": "EVQLQASGGGFVQPGGSLRLSCAASGFGSNRSTMGWFRQAPGKEREFVSAISSLSSDPPYYADSVKGRFTISRDNSKNTVYLQMNSLRAEDTATYYCAPAGMRGVMEYWGQGTQVTVSS"}, "B8": {"name": "G13N3 (VHH, not shown: small tags and cut ends)", "VHH": "EVQLQASGGGFVQPGGSLRLSCAASGRGSRWYGMGWFRQAPGKEREFVSAISAQHSTRAYYADSVKGRFTISRDNSKNTVYLQMNSLRAEDTATYYCAGYMSKMGERKWKYWGQGTQVTVSS"}, "B9": {"name": "G13N4 (VHH, not shown: small tags and cut ends)", "VHH": "EVQLQASGGGFVQPGGSLRLSCAASGSSYAGSAMGWFRQAPGKEREFVSAISSDPDTKAYYADSVKGRFTISRDNSKNTVYLQMNSLRAEDTATYYCAISGQYPYARYWGHGTQVTVSS"}, "B10": {"name": "G13N5 (VHH, not shown: small tags and cut ends)", "VHH": "EVQLQASGGGFVQPGGSLRLSCAASGYTSNEDSMGWFRQAPGKEREFVSAISRGPSFRTYYADSVKGRFTISRDNSKNTVYLQMNSLRAEDTATYYCAIRLGRLYRYGDLTPKSAYYWGQGTQVTVSS"}, "B11": {"name": "G13N6 (VHH, not shown: small tags and cut ends)", "VHH": "EVQLQASGGGFVQPGGSLRLSCAASGRTSSLTSMGWFRQAPGKEREFVSAISFSGSMFTYYADSVKGRFTISRDNSKNTVYLQMNSLRAEDTATYYCADKWMHKPANYWGQGTQVTVSS"}, "B12": {"name": "G13N9 (VHH, not shown: small tags and cut ends)", "VHH": "EVQLQASGGGFVQPGGSLRLSCAASGRGSALTTMGWFRQAPGKEREFVSAISGDTGLYVYYADSVKGRFTISRDNSKNTVYLQMNSLRAEDTATYYCAGKWLGGRQADTRYWGQGTQVTVSS"}}, "data": [{"target": "T1, recombinant human galectin-13 (human, UniProt Q9UHV8 1-139, biotinylated for the phage ELISA; labeled with FITC for the HepG2 cell binding assay)", "T1 construct": "The background says that Gal-13 dimerizes through Cys136 and Cys138; also called GAL-13; Gal-13", "T1 sequence (looked up)": "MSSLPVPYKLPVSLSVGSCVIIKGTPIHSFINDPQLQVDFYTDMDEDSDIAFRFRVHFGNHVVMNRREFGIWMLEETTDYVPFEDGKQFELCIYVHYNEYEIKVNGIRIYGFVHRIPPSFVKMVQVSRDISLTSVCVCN", "experiment": "non-adsorbed phage ELISA on biotinylated GAL-13", "values": [{"binder": "B1", "binding result": "binds"}, {"binder": "B2", "binding result": "binds"}, {"binder": "B3", "binding result": "binds"}]}, {"target": "T1, recombinant human galectin-13", "experiment": "ELISA: sdAb immobilized at 1 µM, 5 µM galectin", "method": "Briefly, Nbs were immobilized at 1 μM for 1 h at RT, followed by blocking with PBS containing 10% (v/v) BSA and 0.05% (v/v) Tween™ 20. 5 μM of galectin were incubated for 1 h at RT. […] The colorimetric assay was carried out with 3,3′,5,5′-tetramethylbenzidine per the manufacturer's recommendations. Data (mean values±SD) from one experiment is shown. Statistical differences were assessed using Dunnett's multiple comparisons test. RT=room temperature", "values": [{"binder": "B4", "binding result": "binds"}, {"binder": "B5", "binding result": "binds"}]}, {"target": "T2, recombinant N-terminal domain of human GAL-9 (human, UniProt O00182 1-148)", "T2 construct": "also called GAL-9N; Gal-9N", "T2 sequence (O00182 1-148 limits assumed)": "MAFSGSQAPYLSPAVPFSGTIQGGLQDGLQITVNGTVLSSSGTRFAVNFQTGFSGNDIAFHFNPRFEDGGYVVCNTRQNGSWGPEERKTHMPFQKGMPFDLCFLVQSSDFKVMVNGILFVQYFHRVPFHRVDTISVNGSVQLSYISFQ", "experiment": "ELISA: sdAb immobilized at 1 µM, 5 µM GAL-9N", "method": "(§1) FIGS. 19A-B show the binding of recombinant N-terminal domain of human GAL-9 (GAL-9N, FIG. 19A) and recombinant C-terminal domain of human GAL-9 (GAL-9C, FIG. 19B) to GAL-9-specific sdAbs as measured by ELISA. Briefly, sdAbs were immobilized at 1 μM for 1 h at RT, followed by blocking with PBS containing 10% (v/v) BSA and 0.05% (v/v) Tween™ 20. 5 μM of recombinant GAL-9N or GAL-9C were incubated for 1 h at RT. […] The colorimetric assay was carried out with 3,3′,5,5′-tetramethylbenzidine per the manufacturer's recommendations. Data (mean values±SD) from three independent experiments is shown. Statistical differences were assessed using Tukey's multiple comparisons test. RT=room temperature.", "values": [{"binder": "B4", "binding result": "binds"}, {"binder": "B6", "binding result": "binds"}, {"binder": "B5", "binding result": "binds"}]}, {"target": "T1, recombinant human galectin-13", "experiment": "cell-based or functional assay", "units": {"inhibition of galectin-13-induced apoptosis of Jurkat T cells": "%"}, "values": [{"binder": "B7", "inhibition of galectin-13-induced apoptosis of Jurkat T cells": -27}, {"binder": "B8", "inhibition of galectin-13-induced apoptosis of Jurkat T cells": -23.5}, {"binder": "B9", "inhibition of galectin-13-induced apoptosis of Jurkat T cells": -31}, {"binder": "B10", "inhibition of galectin-13-induced apoptosis of Jurkat T cells": -44}, {"binder": "B11", "inhibition of galectin-13-induced apoptosis of Jurkat T cells": -27}, {"binder": "B12", "inhibition of galectin-13-induced apoptosis of Jurkat T cells": -33}]}, {"target": "T3, recombinant C-terminal domain of human GAL-9 (human, UniProt O00182 210-355)", "T3 construct": "also called GAL-9C; GAL-9C (210-355)", "T3 sequence (O00182 210-355 limits assumed)": "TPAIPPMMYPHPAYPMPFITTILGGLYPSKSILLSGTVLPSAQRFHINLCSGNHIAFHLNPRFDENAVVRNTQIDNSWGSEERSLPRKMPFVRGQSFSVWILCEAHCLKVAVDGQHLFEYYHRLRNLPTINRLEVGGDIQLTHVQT", "experiment": "ELISA: sdAb immobilized at 1 µM, 5 µM GAL-9C", "method": "as §1", "values": [{"binder": "B6", "binding result": "binds"}, {"binder": "B5", "binding result": "binds"}]}]}
